Where two headings read alike, the source gives them in different places.
Assays:
[1] = target: Rpt1-I191AzF-Cy3 base (budding yeast (S. cerevisiae)) (UniProt P33299); experiment: FRET or BRET
[2] = target: Rpt1-I191AzF-Cy3 base (budding yeast (S. cerevisiae)) (UniProt P33299); experiment: FRET or BRET; remark: listed apart in the source

time constant (τ) of tail engagement [1]: 16.4 s
time constant (τ) of tail engagement [2]: 10.4 s
Substance: polyubiquitinated titin-I27^V15P-Tail substrate labeled with Cy5 on its unstructured initiation domain (from UniProt P0CG63 1-76)
